Measured values taken from article PMC10130748.

Tests used:
[1] = target: CD62P lectin domain R16E/K17E mutant
[2] = target: CD62P (P-selectin) lectin domain (residues 1–117), wild type; assay: ELISA; wells coated with the CD62P lectin domain (WT, mutants, or lectin+EGF; 50 μg/ml where stated), blocked with BSA; soluble αvβ3 or αIIbβ3 (1 μg/ml) in HEPES-Tyrodes buffer with 1 mM MnCl2, 1 h, room temperature; bound integrin detected with anti-β3 mAb AV-10 and HRP anti-mouse IgG
Sequence of CD62P (P-selectin) lectin domain (residues 1–117), wild type (P16109 42-158): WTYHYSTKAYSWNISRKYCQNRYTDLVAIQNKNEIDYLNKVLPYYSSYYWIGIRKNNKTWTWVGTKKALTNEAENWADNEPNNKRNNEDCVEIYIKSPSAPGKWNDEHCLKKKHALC

Sequence of CD62P lectin domain R16E/K17E mutant (P16109 42-158 R57E/K58E): as the sequence (P16109 42-158) above, with R16E, K17E counted along it
Sequence of integrin αvβ3 on β3-CHO cells (P05106 whole entry, looked up): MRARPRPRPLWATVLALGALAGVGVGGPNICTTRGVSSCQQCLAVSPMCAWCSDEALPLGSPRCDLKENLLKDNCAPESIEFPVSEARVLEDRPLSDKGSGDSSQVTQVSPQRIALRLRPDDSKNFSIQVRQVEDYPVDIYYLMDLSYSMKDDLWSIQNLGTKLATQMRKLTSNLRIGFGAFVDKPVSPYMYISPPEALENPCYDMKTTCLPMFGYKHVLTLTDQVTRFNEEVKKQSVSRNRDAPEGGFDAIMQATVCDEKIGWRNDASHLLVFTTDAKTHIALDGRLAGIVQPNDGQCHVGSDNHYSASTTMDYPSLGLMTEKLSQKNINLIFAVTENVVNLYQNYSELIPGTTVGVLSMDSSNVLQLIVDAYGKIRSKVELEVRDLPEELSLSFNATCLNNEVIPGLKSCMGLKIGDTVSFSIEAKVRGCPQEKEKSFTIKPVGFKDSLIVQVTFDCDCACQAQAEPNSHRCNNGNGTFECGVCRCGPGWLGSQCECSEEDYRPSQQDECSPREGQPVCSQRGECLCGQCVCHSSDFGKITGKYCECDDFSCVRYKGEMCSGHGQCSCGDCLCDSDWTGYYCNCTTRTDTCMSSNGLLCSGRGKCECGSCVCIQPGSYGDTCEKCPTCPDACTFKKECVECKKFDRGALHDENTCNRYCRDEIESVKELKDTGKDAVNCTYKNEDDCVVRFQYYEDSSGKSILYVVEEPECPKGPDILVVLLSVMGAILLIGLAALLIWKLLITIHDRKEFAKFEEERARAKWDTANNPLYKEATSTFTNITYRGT

fold binding relative to the combined lectin and EGF-like domains [2] | Substance | also measured
– | integrin α5β1 on parent CHO cells (receptor) | static adhesion of parent CHO cells to wells coated with the R16E/K17E lectin domain (50 μg/ml), Mg2+ buffer [1]: 60 % reduced
– | integrin αvβ3 on β3-CHO cells (from UniProt P05106 27-788) (receptor) | static adhesion of β3-CHO cells to wells coated with the R16E/K17E lectin domain (50 μg/ml), Mg2+ buffer [1]: 60 % reduced
2 fold | soluble recombinant integrin αIIbβ3 (from UniProt P08514 32-1039; P05106 27-718) (receptor) | –
2 fold | soluble recombinant integrin αvβ3 (from UniProt P06756 31-1048; P05106 27-718) (receptor) | –
